Bridges are numbered along the chain shown (N, C = ends). Where no end group is shown, it is not given here. [ ]: non-standard residue; d: D form. The star is where a group is joined. FITC = O=C1OC2(c3ccc(O)cc3Oc3cc(O)ccc32)c2ccc(NC(=S)*)cc21; olefin residue = not defined here
Target: full-length BCL-XL (UniProt Q07817-1 1-233)
Test: fluorescence polarisation

Chain of full-length BCL-XL (Q07817 whole entry): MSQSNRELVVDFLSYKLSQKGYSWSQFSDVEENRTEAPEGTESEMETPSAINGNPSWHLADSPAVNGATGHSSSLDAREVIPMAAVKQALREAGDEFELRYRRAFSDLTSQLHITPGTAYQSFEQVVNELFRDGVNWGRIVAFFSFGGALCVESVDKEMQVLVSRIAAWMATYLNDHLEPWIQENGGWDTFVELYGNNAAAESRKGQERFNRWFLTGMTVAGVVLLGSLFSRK

Kd: 68 nM
Binder: {FITC}-EIWIAQELR[olefin residue]IGD[olefin residue]FNAYYA (staple 10-14; not fully specified; reading uncertain) [FITC-BIM SAHBA2]

From publication PMC6839450 (ACS chemical biology, 2015)
